Measurements from patent US20140112915A1 (Novartis, published 2014).
Residue numbers refer to the chain shown, from its start.

T1: Native human IL-18 (human, UniProt Q14116 37-193)
T1 sequence: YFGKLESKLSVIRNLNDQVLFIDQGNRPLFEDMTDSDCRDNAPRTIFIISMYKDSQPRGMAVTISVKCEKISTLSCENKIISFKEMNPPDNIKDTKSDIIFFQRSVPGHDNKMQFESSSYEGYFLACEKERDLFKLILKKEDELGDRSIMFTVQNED

T2: Recombinant cynomolgus IL-18 (cynomolgus monkey, UniProt Q14116 37-193 (human entry))
T2 chain: T1 sequence with V11I, S50N, T63A, K79R, F134Y, E141K

T3: Recombinant human IL-18 (human, UniProt Q14116 37-193)
T3 sequence: T1 sequence

T4: IL-18/IL-18BP complex (human, UniProt O95998 31-194, biotinylated in the first ELISA setup, unbiotinylated in the second)
T4 construct: also called biotinylated IL-18/IL18-BP complex; not shown: human IgG1 Fc tag
T4 sequence 1: T1 sequence
T4 sequence 2: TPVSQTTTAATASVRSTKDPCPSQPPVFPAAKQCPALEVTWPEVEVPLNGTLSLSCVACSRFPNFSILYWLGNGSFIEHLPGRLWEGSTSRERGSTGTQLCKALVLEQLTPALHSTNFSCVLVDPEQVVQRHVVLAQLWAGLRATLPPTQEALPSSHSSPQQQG

B1: MOR09465 (antibody, human IgG1, lambda, L234A L235A, V domains shown)
VH: EVQLVQSGAEVKKPGSSVKVSCKASGGTFNSYAISWVRQAPGQGLEWMGNIIPHYGFAYYAQKFQGRVTITADESTSTAYMELSSLRSEDTAVYYCARAAYHPLVFDNWGQGTLVTVSS
VL: DIVLTQPPSVSGAPGQRVTISCSGSSSNIGNHYVNWYQQLPGTAPKLLIYRNNHRPSGVPDRFSGSKSGTSASLAITGLQSEDEADYYCQSWDYSGFSTVFGGGTKLTVLG
notes: also called MOR9465
B2: MOR9464_N30K (antibody, human IgG1, lambda, L234A L235A, V domains shown)
VH: B1 VH with N30K, H54M, Y55T, F57Q, A58T
VL: B1 VL
notes: also called MOR09464_N30K
B3: MOR09464 (antibody, human IgG1, lambda, L234A L235A, V domains shown)
VH: B1 VH with H54M, Y55T, F57Q, A58T
VL: B1 VL
notes: also called MOR9464
B4: MOR09441 (antibody, human IgG1, lambda, L234A L235A, V domains shown)
VH: EVQLVQSGAEVKKPGSSVKVSCKASGGTFNSYAISWVRQAPGQGLEWMGWINPFYIGETFYAQKFQGRVTITADESTSTAYMELSSLRSEDTAVYYCARAAYHPLVFDNWGQGTLVTVSS
VL: B1 VL
notes: also called MOR9441
B5: MOR08775 (antibody, human IgG1, lambda, V domains shown)
VH: B1 VH with E1Q, N50G, H54I, F57T, Y59N
VL: B1 VL
notes: also called MOR8775
B6: MOR09466 (antibody, human IgG1, lambda, L234A L235A, V domains shown)
VH: B1 VH with H54Y, Y55S
VL: B1 VL
notes: also called MOR9466
B7: MOR08776 (antibody, human IgG1, lambda, V domains shown)
VH: QVQLQESGPGLVKPGETLSLTCTVSGGSISTGSYYWNWIRQAPGKGLEWIGEINHMGITYYNPSLKGRVTISVDTSKNQFSLKLSSVTAEDTAVYYCARTTRYWMSHILAYGMDYWGQGTLVTVSS
VL: DIVLTQPPSVSGAPGQRVTISCSGSSSNIGNHYVSWYQQLPGTAPKLLIYANTKRPSGVPDRFSGSKSGTSASLAITGLQSEDEADYYCSSYDGSQSIVFGGGTKLTVLG
notes: also called MOR8776

Each binder was assayed against T1, Native human IL-18 (assay: cell-based or functional assay).
B1 was tested, and the “IC50, inhibition of IFN-γ release, PBMC, Native IL-18 (LPS/IL-12)” value (“IC50, inhibition … (LPS/IL-12)” below) was 0.89 nM. For B2, the “IC50, inhibition … (LPS/IL-12)” value was 0.2 nM. With B3 the “IC50, inhibition … (LPS/IL-12)” value was 0.2 nM. With B4 the “IC50, inhibition … (LPS/IL-12)” value was 0.45 nM. With B5 the “IC50, inhibition … (LPS/IL-12)” value was 0.7 nM. B6 was tested, and the “IC50, inhibition … (LPS/IL-12)” value was 2.1 nM. In the case of B7, the “IC50, inhibition … (LPS/IL-12)” value is reported as 5.9 nM.

Molecular target: T2, Recombinant cynomolgus IL-18
Experiment: cell-based or functional assay
For B1, the “IC50, inhibition of IFN-γ release, KG-1 cells, Cyno IL-18” value (“IC50, inhibition … Cyno IL-18” below) was 1.8 nM. In the case of B2, the “IC50, inhibition … Cyno IL-18” value is reported as 4.7 nM. In the case of B3, the “IC50, inhibition … Cyno IL-18” value is reported as 8.3 nM. B4 was tested, and the “IC50, inhibition … Cyno IL-18” value was 16.4 nM. For B5, the “IC50, inhibition … Cyno IL-18” value was 22 nM. With B6 the “IC50, inhibition … Cyno IL-18” value was 5.6 nM.

Each binder was assayed against T3, Recombinant human IL-18 (assay: cell-based or functional assay).
B1 was tested, and the “IC50, inhibition of IFN-γ release, KG-1 cells, Hu IL-18 (1 nM)” value (from here on “IC50, inhibition of IFN-γ release … (1 nM)”) was 0.3 nM and the “IC50, inhibition of IFN-γ release, PBMC, Hu IL-18 (recombinant)” value (from here on “IC50, inhibition … (recombinant)”) was 0.6 nM. In the case of B2, the “IC50, inhibition of IFN-γ release … (1 nM)” value is reported as 0.36 nM. In the case of B3, the “IC50, inhibition of IFN-γ release … (1 nM)” value is reported as 0.8 nM and the “IC50, inhibition … (recombinant)” value is reported as 1.3 nM. With B4 the “IC50, inhibition of IFN-γ release … (1 nM)” value was 0.6 nM and the “IC50, inhibition … (recombinant)” value was 2.5 nM. B5 was tested, and the “IC50, inhibition of IFN-γ release … (1 nM)” value was 68 nM and the “IC50, inhibition … (recombinant)” value was 9.2 nM. For B6, the “IC50, inhibition of IFN-γ release … (1 nM)” value was 0.4 nM and the “IC50, inhibition … (recombinant)” value was 1.2 nM. B7 was tested, and the “IC50, inhibition of IFN-γ release … (1 nM)” value was 18 nM and the “IC50, inhibition … (recombinant)” value was 50.8 nM.

Molecular target: T2, Recombinant cynomolgus IL-18
Experiment: solution equilibrium titration (SET), ECL detection; value in brackets = cynomolgus IL-18; bracketed value
In the case of B2, the Kd is reported as 0.02 nM.

Each binder was assayed against T4, IL-18/IL-18BP complex (assay: ELISA, first set-up: antibody titrated and incubated with the biotinylated human IL-18/rhIL-18BP-Fc complex, captured on NeutrAvidin plate, AP-labelled anti-human F(ab)2, AttoPhos fluorescence [A]).
B5: no binding (tested: about 800 nM). B7: no binding (tested: about 800 nM).

Molecular target: T1, Native human IL-18
Experiment: cell-based or functional assay
Remark: another data set of the same source
With B1 the “IC50, inhibition of IFN-γ release, human whole blood, LPS/IL-12 (native IL-18)” value (shortened to “IC50, inhibition … (native IL-18)”) was 19.4 nM. For B2, the “IC50, inhibition … (native IL-18)” value was 17.1 nM. With B3 the “IC50, inhibition … (native IL-18)” value was 9.8 nM. With B4 the “IC50, inhibition … (native IL-18)” value was 16.3 nM. In the case of B6, the “IC50, inhibition … (native IL-18)” value is reported as 18.5 nM.

Molecular target: T3, Recombinant human IL-18
Experiment: cell-based or functional assay
Remark: another data set of the same source
With B1 the “IC50, inhibition of IFN-γ release, human whole blood, recombinant human IL-18 (7 nM)” value (“IC50, inhibition of IFN-γ release … (7 nM)” for short) was 4.2 nM. In the case of B2, the “IC50, inhibition of IFN-γ release … (7 nM)” value is reported as 8.62 nM. B3 was tested, and the “IC50, inhibition of IFN-γ release … (7 nM)” value was 3.6 nM. For B4, the “IC50, inhibition of IFN-γ release … (7 nM)” value was 8 nM. In the case of B6, the “IC50, inhibition of IFN-γ release … (7 nM)” value is reported as 5.6 nM.

Each binder was assayed against T4, IL-18/IL-18BP complex (assay: ELISA, second set-up: unbiotinylated human IL-18/rhIL-18BP-Fc complex captured on Maxisorp plate through the Fc tag by goat anti-human IgG Fc, antibody titrated, AttoPhos fluorescence [B]).
B1: no binding (tested: about 400 nM). B3: no binding (tested: about 400 nM). B4: no binding (tested: about 400 nM). B6: no binding (tested: about 400 nM).

Molecular target: T2, Recombinant cynomolgus IL-18
Experiment: cell-based or functional assay
Remark: another data set of the same source
With B1 the “IC50, inhibition of IFN-γ production, cynomolgus whole blood, recombinant cynomolgus IL-18 (7 nM)” value (“IC50, inhibition of IFN-γ production” for short) was 55 nM. For B3, the “IC50, inhibition of IFN-γ production” value was 51 nM. With B4 the “IC50, inhibition of IFN-γ production” value was 110 nM. For B6, the “IC50, inhibition of IFN-γ production” value was 179 nM.

Molecular target: T2, Recombinant cynomolgus IL-18
Experiment: ratio of SET KD values, cynomolgus against human IL-18
With B2 the “fold weaker than against human IL-18” value was 10 fold.

Molecular target: T1, Native human IL-18
Experiment: cell-based or functional assay
Remark: another data set of the same source
For B2, the “IC50, inhibition … (LPS/IL-12)” value was 0.2 nM.

Molecular target: T3, Recombinant human IL-18
Experiment: cell-based or functional assay
Remark: another data set of the same source
For B2, the “IC50, inhibition of IFN-γ release … (1 nM)” value was 0.36 nM.

What follows are binders tested against T3, Recombinant human IL-18 (assay: solution equilibrium titration (SET), ECL detection).
Work on B1 yielded a Kd of 0.006 nM. Binder B3 has a Kd of 0.003 nM. For B4, the Kd was 0.001 nM. B5 gave a Kd of 0.065 nM. B6 showed a Kd of 0.005 nM. B7 showed a Kd of 0.038 nM.

The binders below were run against T3, Recombinant human IL-18 (assay: solution equilibrium titration (SET), ECL detection; human IL-18; unbracketed value, column Hu IL-18).
Binder B2 has a Kd of 0.002 nM.
